We go through 21 sequences from the supplement of paper PMC9170038.

This series deals with K4 kissing-loop RNA reporter. Briefly: apparent KD of K4 kissing-loop reporter; higher = weaker reporter binding. The following applies: Eterna round: R107. As for the experimental part: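 RNA-MaP round R107: designed RNA switches with theophylline, tryptophan, arginine or FMN aptamers are transcribed on-chip within common flanks. They are titrated with a labelled K4 kissing-loop RNA reporter in RNA-MaP buffer (100 mM Tris pH 7.5, 80 mM KCl, 4 mM MgCl2), without ligand or with the indicated ligand. Median apparent KD per design.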

Setting [1] is: input ligand: theophylline 20 uM.
Setting [2] is: input ligand: tryptophan 2.4 mM.
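Further: bound reporter read as fluorescence of individual clusters on recovered sequencing chips by microscopy, with normalized cluster intensities fitted with a binding model.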

Take “AAUCGAGUGAUGUUCGAUGUAGUGCAUUCAGAGGAUAUAGGAUGGGCUAGAAGGCUGAAAAGUGCUUCGAGUGAUGUUCGAAGAU [Exclusion FMN A GF 4]”: the “apparent KD of K4 kissing-loop reporter” value is, setting by setting: (input ligand: FMN 200 uM) 47.1 nM; (input ligand: arginine 13.2 mM) 49 nM; (input ligand: none) 76.7 nM; under setting [1], 49.7 nM; under setting [2], 56 nM.
The like results for “AAUGUGCAGGGAAGGAGCGUAGUCCAGUGCUGUUGGAGUUAAAUACCAGUGAUGUUGGUUAUACAGGUAGGUCGCCCUAAAGCGC [whbob_Ex_Arginine_B_2th160]” were, in that order, 141 nM, 176 nM, 158 nM, 211 nM and 129 nM.
The like results for “AAUUACCUAGUGAUGUUGGGAAUAAUAUAACGAGGACCGGUACGGCCGCCACUCGAGGUCCUAAUUAAGAACGCGAAAGCGAAGA [Tryptophan A Exclusion; Euphoria Solution]” were, in that order, 94.4 nM, 60.5 nM, 93.1 nM, 66.8 nM and 189 nM.
The like results for “AAUUUAUAUUUAUUCUUUAAUUGUUCAGAAGGAGCGUGAAUUAUCACAGGUAGGUCGCUGAGCUAGUGAUGUUAGCUAUAUACUA [JR_ExcArginiA_Sub008]” were, in that order, 65.5 nM, 105 nM, 62.8 nM, 82.8 nM and 58.4 nM.
For the sequence “AAUUUAUUAACUGAUACCAGACUAAUUUUAUUUAUUAAGUCAAGUGAUGUUUGACUUUAUGUCCCUUGGCAGCAGAAUUAAUUAA [JR_SSTheophyB_Sub019]”, the “apparent KD of K4 kissing-loop reporter” value (input ligand: FMN 200 uM) amounted to 126 nM; the “apparent KD of K4 kissing-loop reporter” value (input ligand: arginine 13.2 mM) worked out at 143 nM; the “apparent KD of K4 kissing-loop reporter” value (input ligand: none) was 124 nM; the “apparent KD of K4 kissing-loop reporter” value under setting [1] worked out at 112 nM; the “apparent KD of K4 kissing-loop reporter” value under setting [2] was found to be 128 nM.
For “AAUUUAUUAACUGAUACCAGACUUUAGCGUGUUUAUAAGUCAAGUGAUGUUUGACUAUUAGUCCCUUGGCAGCAGUAUUUAUUAA [JR_SSTheophyB_Sub022]”, the “apparent KD of K4 kissing-loop reporter” value is, setting by setting: (input ligand: FMN 200 uM) 149 nM; (input ligand: arginine 13.2 mM) 131 nM; (input ligand: none) 134 nM; under setting [1], 114 nM; under setting [2], 120 nM.
“AAUUUGUAUUUAUUCUUUAAAUGUUCAGAAGGAGCGUGAAUUAUCACAGGUAGGUCGCUGAGCUAGUGAUGUUAGCUAUACACUA [#01 K4 Arginine A Exclusion]”: the “apparent KD of K4 kissing-loop reporter” value (input ligand: FMN 200 uM) came out at 98.5 nM; the “apparent KD of K4 kissing-loop reporter” value (input ligand: arginine 13.2 mM) was 201 nM; the “apparent KD of K4 kissing-loop reporter” value (input ligand: none) amounted to 127 nM; the “apparent KD of K4 kissing-loop reporter” value under setting [1] is 181 nM; the “apparent KD of K4 kissing-loop reporter” value under setting [2] came out at 91 nM.
The like results for “ACAGAUUGAUUGAUUCACUUUGUAGCUGCGAAGGAUAUUAAGACGCUAAGAAGGUCGCUUAAGGGUAGUGAUGUUACCUUUUGAG [theeternabot_sameState_KL_FMN_A_27]” were, in that order, 57.3 nM, 55 nM, 57.8 nM, 56.6 nM and 51.4 nM.
Consider “ACCAUCAAAGAUGGCCAGGACUCAACUGAUACCAGAGUGGAAACACUCCCUUGGCAGCAGGUGAGUGAUGUUCACGAGUCCUGGA [Omel KL Theo A SS B v8]”, for which the “apparent KD of K4 kissing-loop reporter” value is 942 nM (input ligand: FMN 200 uM); 786 nM (input ligand: arginine 13.2 mM); 982 nM (input ligand: none); 522 nM under setting [1]; 787 nM under setting [2].
Turning to “ACCUACCAUUAGUGAUGUUAAUGGACGGAAGGAGCGCGGAUAUCUGCAGGUAGGUCGCCGAAGGCUAGACAUUGUCUAGCCAUUA [AK1 SS Arginine A]”, the “apparent KD of K4 kissing-loop reporter” value runs as follows: (input ligand: FMN 200 uM) 149 nM; (input ligand: arginine 13.2 mM) 113 nM; (input ligand: none) 131 nM; under setting [1], 107 nM; under setting [2], 120 nM.
Regarding “ACGCUAGCUACCGAAAGGUAGCUAGCGAGUGAGGAUAUGUGGAAACACAGAAGGCACAGCACAGUGAUGUUGUGCGGCGAAAGCC”, the “apparent KD of K4 kissing-loop reporter” value runs as follows: (input ligand: FMN 200 uM) 587 nM; (input ligand: arginine 13.2 mM) 249 nM; (input ligand: none) 932 nM; under setting [1], 522 nM; under setting [2], 729 nM.
Turning to “ACGUAGUACGUAGGAUAUCAGAGAUCAGUUAGUGAGAUCGAGUGAUGUUCGAUCAUGUGUUCAUUUUGAGAAGGAUGUAGUAGGA [KL-SSFMN-B6]”, the “apparent KD of K4 kissing-loop reporter” value (input ligand: FMN 200 uM) came out at 302 nM; the “apparent KD of K4 kissing-loop reporter” value (input ligand: arginine 13.2 mM) worked out at 302 nM; the “apparent KD of K4 kissing-loop reporter” value (input ligand: none) came to 366 nM; the “apparent KD of K4 kissing-loop reporter” value under setting [1] was 358 nM; the “apparent KD of K4 kissing-loop reporter” value under setting [2] was found to be 228 nM.
In the case of “ACUACGAAGACGGCCGCCACUGAUAUUCGUAGAUCCAUCAUUGCAUGAGUGAUGUUCAUGUAUAUCAGGACCGGGUCAAGAUGGU [KL-XTryp-B18 #analogue]”, the “apparent KD of K4 kissing-loop reporter” value reads like this: (input ligand: FMN 200 uM) 295 nM; (input ligand: arginine 13.2 mM) 245 nM; (input ligand: none) 305 nM; under setting [1], 282 nM; under setting [2], 213 nM.
The like results for “ACUAGAAAACCAGUGAUGUUGGCCUGGGAUACCAGCUUCUAUUAUAGCCCUUGGCAGCCCUUUAGUACAAGUGACCUUGCGACCG [theeternabot_sameState_KL_Theo_A_9]” were, in that order, 299 nM, 217 nM, 452 nM, 217 nM and 277 nM.
With “AGAACUGUCUGAGAUACCAGCUAAGGAGUGAUGUUCCGGCUCGACGAAACGUCGAGCCAUAGCCCUUGGCAGCUCAGACAGUUCA [#27 K4 Theophylline B Same State]”, the “apparent KD of K4 kissing-loop reporter” value was 431 nM (input ligand: FMN 200 uM); 183 nM (input ligand: arginine 13.2 mM); 378 nM (input ligand: none); 873 nM under setting [1]; 244 nM under setting [2].
The like results for “AGAACUGUCUUGGAUACCAGUGAUGUUGGUAUCGAUGUGUGAGUGCAAAGCGUCCCACAUCGCCCUUGGCAGCUAAGACUGUUCA [Omei KL Theo B Exc A v4]” were, in that order, 287 nM, 238 nM, 302 nM, 349 nM and 257 nM.
“AGACCACAAAGUGGUCAGUGUUCGCUCCGGCGAGGACCGGUACGGCCGCCACUCGCGAGUGAUGUUCGCGAGUGGAGCGAACACA [Omei KL Tryp A Exc A v1]”: the “apparent KD of K4 kissing-loop reporter” value (input ligand: FMN 200 uM) is 88.8 nM; the “apparent KD of K4 kissing-loop reporter” value (input ligand: arginine 13.2 mM) came out at 78 nM; the “apparent KD of K4 kissing-loop reporter” value (input ligand: none) is 88.6 nM; the “apparent KD of K4 kissing-loop reporter” value under setting [1] was 76 nM; the “apparent KD of K4 kissing-loop reporter” value under setting [2] amounted to 86.3 nM.
On to “AGACCACAAAGUGGUCAGUGUUCGCUGCCGCGAGGACCGGUACGGCCGCCACUCGCGAGUGAUGUUCGCGAGGGCAGCGAACACA [Omei KL Tryp A Exc A v4]”, for which the “apparent KD of K4 kissing-loop reporter” value reads like this: (input ligand: FMN 200 uM) 99.7 nM; (input ligand: arginine 13.2 mM) 87.8 nM; (input ligand: none) 87.9 nM; under setting [1], 86.8 nM; under setting [2], 106 nM.
“AGACUACCACACUGUCAAUAGACAGUGAACUAGGAUAUGCUGAUAAGCAGAAGGAGUGAUGUUCCGAGGUAGUCAAUAAAAUAAU [FmnAX 13 G66]”: the “apparent KD of K4 kissing-loop reporter” value runs as follows: (input ligand: FMN 200 uM) 281 nM; (input ligand: arginine 13.2 mM) 246 nM; (input ligand: none) 287 nM; under setting [1], 334 nM; under setting [2], 289 nM.
For the sequence “AGACUACCACACUGUCAAUAGACAGUGUACUAGGAUAUGCUGAUAAGCAGAAGGAGUGAUGUUCCUCGGUAGUCAAUAAAAUAAU [FmnAX 13 U28+C67]”, the “apparent KD of K4 kissing-loop reporter” value reads like this: (input ligand: FMN 200 uM) 220 nM; (input ligand: arginine 13.2 mM) 300 nM; (input ligand: none) 286 nM; under setting [1], 350 nM; under setting [2], 276 nM.
The like results for “AGACUACUGACAGGAUAUAACAUACUAGCUCGUAUACCAAAGGUAUACGAGCACCUUCUAGUGAUGUUAGAAGGGUCGGUAGUCA [Omei KL FMN B Exc B v2]” were, in that order, 412 nM, 264 nM, 300 nM, 310 nM and 310 nM.
